From US20200147178A1 (SYNERKINE PHARMA B V, published 2020) come the findings set out here.

The data set deals with the molecule itself. The data set is described as follows: HP-SEC, self-association. The method, then: To determine the molecular weight of the IL4-IL10 fusion protein, a High Performance Size Exclusion Chromatography (HP-SEC) assay was performed. The gel filtration (BioSuite 125 4 μm UHR SEC Column; Waters; Cat #186002161) was performed on a High-Performance Liquid Chromatography System (Shimadzu) with 50 mM phosphate buffer containing 0.5 M NaCl as mobile phase. The column was calibrated prior to the run using a protein mix of thyroglobulin, bovine serum albumen, carbonic anhydrase, myoglobulin, and ribonuclease. The IL4-IL10 fusion protein purified by cation exchange was obtained by pooling and concentrating the chromatography fractions with the highest IL4-IL10 fusion protein content (2 ml of pooled fractions was concentrated to 100 μl, containing 2 μg of IL4-IL10 fusion protein). Fifty μl of 20 μg/ml of pooled IL4-IL10 fusion protein was injected and ran trough the column at a flow rate of 0.35 ml/min and under a pressure of 35 bar. Fractions of 175 μl were collected and the IL4 and IL10 content was measured in the above described IL4 and IL10 ELISA (1/500 dilution). Similar runs with recombinant human IL4 (Sigma, Cat #14269) and recombinant human IL10 (Sigma, Cat #19276) were performed to compare the molecular size of the IL4-IL10 fusion protein with that of the wild-type cytokines.
In general terms: In gel filtration, larger molecules generally elute earlier.

B1: recombinant human IL10 (Sigma, Cat #19276) (ligand, UniProt P22301 19-178, looked up)
chain: SPGQGTQSENSCTHFPGNLPNMLRDLRDAFSRVKTFFQMKDQLDNLLLKESLLEDFKGYLGCQALSEMIQFYLEEVMPQAENQDPDIKAHVNSLGENLKTLRLRLRRCHRFLPCENKSKAVEQVKNAFNKLQEKGIYKAMSEFDIFINYIEAYMTMKIRN
notes: also called recombinant IL10; wild-type IL10
Take B1: the binding result is recorded as “binds”.

B2: IL4-IL10 fusion protein (other)
chain: HKCDITLQEIIKTLNSLTEQKTLCTELTVTDIFAASKNTTEKETFCRAATVLRQFYSHHEKDTRCLGATAQQFHRHKQLIRFLKRLDRNLWGLAGLNSCPVKEANQSTLENFLERLKTIMREKYSKCSSGSGGGGSGTSPGQGTQSENSCTHFPGNLPNMLRDLRDAFSRVKTFFQMKDQLDNLLLKESLLEDFKGYLGCQALSEMIQFYLEEVMPQAENQDPDIKAHVNSLGENLKTLRLRLRRCHRFLPCENKSKAVEQVKNAFNKLQEKGIYKAMSEFDIFINYIEAYMTMKIRN
modifications: glycosylated (two glycoforms on the blot, one band after PNGaseF); made with co-transfected sialyltransferase to cap the glycans with sialic acid; sites not stated
notes: On the Western blot it was reduced and denatured; also called IL4-10 fusion protein; IL4-IL10 protein
Turning to B2, the binding result was “binds”.
